From the supplement of paper PMC9112550, “Optimization of the antimicrobial peptide Bac7 by deep mutational scanning” (BMC Biology, 2022)

Test system: Escherichia coli TOP10
Test: shrunken log2 fold change of peptide-encoding DNA abundance (4.5 h post-induction vs induction); higher = less antimicrobial activity (less host growth inhibition)
Conditions: time post-induction: 4.5 h; library: site-saturation at positions 5, 18, 19, 20
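Note: peptides expressed intracellularly from a pBAD plasmid library in pooled LB shake-flask culture, induced with 0.3% L-arabinose, DNA abundance read by NGS, three biological replicates, DESeq2 with apeglm shrinkage.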

Sequence	shrunken log2 fold change
RRIRDRPPRLPRPRPRPHCVPRP	0.017
RRIRDRPPRLPRPRPRPHDPPRP	-0.147
RRIRDRPPRLPRPRPRPHEIPRP	-0.0115
RRIRDRPPRLPRPRPRPHFAPRP	-0.103
RRIRDRPPRLPRPRPRPHFPPRP	-0.0339
RRIRDRPPRLPRPRPRPHGLPRP	-0.0404
RRIRDRPPRLPRPRPRPHHLPRP	-0.0476
RRIRDRPPRLPRPRPRPHHVPRP	-0.145
RRIRDRPPRLPRPRPRPHIEPRP	0.0695
RRIRDRPPRLPRPRPRPHIYPRP	-0.0848
RRIRDRPPRLPRPRPRPHLLPRP	0.0253
RRIRDRPPRLPRPRPRPHMEPRP	0.198
RRIRDRPPRLPRPRPRPHMVPRP	-0.195
RRIRDRPPRLPRPRPRPHNQPRP	-0.398
RRIRDRPPRLPRPRPRPHQIPRP	-0.248
RRIRDRPPRLPRPRPRPHRAPRP	-0.0299
RRIRDRPPRLPRPRPRPHSPPRP	-0.264
RRIRDRPPRLPRPRPRPHTRPRP	0.013
RRIRDRPPRLPRPRPRPHWLPRP	0.149
RRIRDRPPRLPRPRPRPHWQPRP	-0.149
RRIRDRPPRLPRPRPRPICDPRP	0.137
RRIRDRPPRLPRPRPRPICQPRP	0.0244
RRIRDRPPRLPRPRPRPIDYPRP	-0.0396
RRIRDRPPRLPRPRPRPIEVPRP	-0.13
RRIRDRPPRLPRPRPRPIGCPRP	0.242

Sequence	shrunken log2 fold change
RRIRDRPPRLPRPRPRPIGLPRP	-0.00129
RRIRDRPPRLPRPRPRPIGRPRP	0.00739
RRIRDRPPRLPRPRPRPIHMPRP	0.0641
RRIRDRPPRLPRPRPRPIIGPRP	-0.193
RRIRDRPPRLPRPRPRPIIVPRP	0.0216
RRIRDRPPRLPRPRPRPIKFPRP	-0.236
RRIRDRPPRLPRPRPRPILPPRP	0.0106
RRIRDRPPRLPRPRPRPIMIPRP	-0.408
RRIRDRPPRLPRPRPRPINEPRP	-0.144
RRIRDRPPRLPRPRPRPINIPRP	-0.282
RRIRDRPPRLPRPRPRPINYPRP	0.0585
RRIRDRPPRLPRPRPRPIPLPRP	-0.0193
RRIRDRPPRLPRPRPRPIPNPRP	0.0139
RRIRDRPPRLPRPRPRPIPRPRP	-0.187
RRIRDRPPRLPRPRPRPIPYPRP	-0.0147
RRIRDRPPRLPRPRPRPIQHPRP	-0.444
RRIRDRPPRLPRPRPRPIQPPRP	0.00911
RRIRDRPPRLPRPRPRPISAPRP	0.0787
RRIRDRPPRLPRPRPRPISNPRP	-0.175
RRIRDRPPRLPRPRPRPISTPRP	-0.146
RRIRDRPPRLPRPRPRPITVPRP	-0.0979
RRIRDRPPRLPRPRPRPIVSPRP	0.041
RRIRDRPPRLPRPRPRPIWIPRP	0.0877
RRIRDRPPRLPRPRPRPIWMPRP	-0.00247
RRIRDRPPRLPRPRPRPIWYPRP	-0.0481

Sequence	shrunken log2 fold change
RRIRDRPPRLPRPRPRPIYCPRP	0.0039
RRIRDRPPRLPRPRPRPKAGPRP	0.143
RRIRDRPPRLPRPRPRPKAPPRP	0.341
RRIRDRPPRLPRPRPRPKCLPRP	0.313
RRIRDRPPRLPRPRPRPKDAPRP	-0.018
RRIRDRPPRLPRPRPRPKEGPRP	0.32
RRIRDRPPRLPRPRPRPKFLPRP	-0.241
RRIRDRPPRLPRPRPRPKGLPRP	0.253
RRIRDRPPRLPRPRPRPKHNPRP	-0.0986
RRIRDRPPRLPRPRPRPKIGPRP	-0.0266
RRIRDRPPRLPRPRPRPKKDPRP	0.199
RRIRDRPPRLPRPRPRPKNKPRP	-0.314
RRIRDRPPRLPRPRPRPKPSPRP	0.503
RRIRDRPPRLPRPRPRPKPTPRP	0.0678
RRIRDRPPRLPRPRPRPKQQPRP	-0.053
RRIRDRPPRLPRPRPRPKSNPRP	-0.305
RRIRDRPPRLPRPRPRPKTKPRP	-0.0788
RRIRDRPPRLPRPRPRPKTSPRP	0.0412
RRIRDRPPRLPRPRPRPKVEPRP	0.109
RRIRDRPPRLPRPRPRPLAEPRP	1.17
RRIRDRPPRLPRPRPRPLAHPRP	0.151
RRIRDRPPRLPRPRPRPLCCPRP	0.0616
RRIRDRPPRLPRPRPRPLDAPRP	0.0602
RRIRDRPPRLPRPRPRPLDCPRP	0.118
RRIRDRPPRLPRPRPRPLDPPRP	0.0323
